This test concerns the target T1, integrin alphaEbeta7 (human, UniProt P38570 19-1179; P26010 20-798).
T1 construct: whole, on cells; In the occupancy experiments it stood on T lymphocytes from patients' colonic biopsies; also called αEβ7; αEβ7 receptor
The experiment in a line: flow cytometry on CD45+CD3+CD4- T lymphocytes from a pre-dose colonic biopsy. The protocol:
Etrolizumab binds the β7 subunits of the heterodimeric integrins α4β7 and αEβ7. While α4β7 is expressed on leukocyte subsets in both blood and mucosal tissue, αEβ7 is primarily confined to intraepithelial lymphocytes and dendritic cells in mucosal tissue. Therefore, to evaluate the pharmacology and mechanism of action of etrolizumab at the site of action as well as in circulation, colonic tissue was assessed in addition to peripheral blood. Colonic tissue biopsies were collected using standard surgical procedures from 23 consented, study-enrolled patients at pre-dose (screen) and at certain post dose time points (day 43 and day 71). […]
Similar to the flow cytometry assay conducted on peripheral blood cells, occupancy of β7 integrin receptors on colonic tissue T lymphocyte subsets was assessed by staining with fluorescently labeled (PE label) FIB504, while expression of β7 integrin receptors was evaluated using fluorescently labeled 9D8 (PE label). […] Samples were then acquired on a BD FACS Cantoll™ or a BD FACSCalibur™ (BD Biosciences, San Jose, Calif. USA) and analyzed by gating on subsets of αEβ7-expressing and α4β7-expressing CD3+CD45+, αEβ7-expressing and α4β7-expressing CD3+CD4+CD45+, and αEβ7-expressing and α4β7-expressing CD3+CD4-CD45+ T cell subsets. […]
On the technique in general: Flow cytometry measures light scatter and fluorescence of single cells or particles in a stream.

T1 sequence (P38570 19-1179, chain 1 of 2): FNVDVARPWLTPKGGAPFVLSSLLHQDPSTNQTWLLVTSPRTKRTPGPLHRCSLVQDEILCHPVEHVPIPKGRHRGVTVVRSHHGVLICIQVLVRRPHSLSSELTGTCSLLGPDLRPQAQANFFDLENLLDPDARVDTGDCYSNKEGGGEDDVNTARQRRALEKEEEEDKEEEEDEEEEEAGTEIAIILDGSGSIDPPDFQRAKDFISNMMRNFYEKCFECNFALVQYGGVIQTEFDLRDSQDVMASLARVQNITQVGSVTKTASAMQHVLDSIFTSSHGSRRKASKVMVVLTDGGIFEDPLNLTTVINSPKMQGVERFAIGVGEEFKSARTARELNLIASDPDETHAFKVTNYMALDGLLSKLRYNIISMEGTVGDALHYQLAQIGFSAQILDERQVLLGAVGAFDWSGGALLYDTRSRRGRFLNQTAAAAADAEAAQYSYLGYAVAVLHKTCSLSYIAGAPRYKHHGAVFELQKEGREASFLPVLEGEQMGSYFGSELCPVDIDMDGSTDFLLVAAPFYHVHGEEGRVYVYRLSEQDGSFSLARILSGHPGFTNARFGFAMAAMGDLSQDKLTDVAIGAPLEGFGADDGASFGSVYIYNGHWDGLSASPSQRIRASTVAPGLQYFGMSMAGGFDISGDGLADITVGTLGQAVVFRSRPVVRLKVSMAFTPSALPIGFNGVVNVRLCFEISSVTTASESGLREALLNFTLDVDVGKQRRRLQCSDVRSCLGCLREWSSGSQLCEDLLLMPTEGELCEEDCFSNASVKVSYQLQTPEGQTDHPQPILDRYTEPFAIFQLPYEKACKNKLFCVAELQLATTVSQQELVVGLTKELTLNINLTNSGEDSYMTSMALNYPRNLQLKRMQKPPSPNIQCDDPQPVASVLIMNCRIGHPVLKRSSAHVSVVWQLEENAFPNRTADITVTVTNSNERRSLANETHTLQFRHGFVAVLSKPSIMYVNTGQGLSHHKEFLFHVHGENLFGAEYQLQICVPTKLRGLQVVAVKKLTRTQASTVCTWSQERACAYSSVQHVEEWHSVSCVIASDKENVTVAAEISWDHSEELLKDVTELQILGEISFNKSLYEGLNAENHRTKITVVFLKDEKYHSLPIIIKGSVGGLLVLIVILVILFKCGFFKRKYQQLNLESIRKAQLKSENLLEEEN
T1 sequence (P26010 20-798, chain 2 of 2): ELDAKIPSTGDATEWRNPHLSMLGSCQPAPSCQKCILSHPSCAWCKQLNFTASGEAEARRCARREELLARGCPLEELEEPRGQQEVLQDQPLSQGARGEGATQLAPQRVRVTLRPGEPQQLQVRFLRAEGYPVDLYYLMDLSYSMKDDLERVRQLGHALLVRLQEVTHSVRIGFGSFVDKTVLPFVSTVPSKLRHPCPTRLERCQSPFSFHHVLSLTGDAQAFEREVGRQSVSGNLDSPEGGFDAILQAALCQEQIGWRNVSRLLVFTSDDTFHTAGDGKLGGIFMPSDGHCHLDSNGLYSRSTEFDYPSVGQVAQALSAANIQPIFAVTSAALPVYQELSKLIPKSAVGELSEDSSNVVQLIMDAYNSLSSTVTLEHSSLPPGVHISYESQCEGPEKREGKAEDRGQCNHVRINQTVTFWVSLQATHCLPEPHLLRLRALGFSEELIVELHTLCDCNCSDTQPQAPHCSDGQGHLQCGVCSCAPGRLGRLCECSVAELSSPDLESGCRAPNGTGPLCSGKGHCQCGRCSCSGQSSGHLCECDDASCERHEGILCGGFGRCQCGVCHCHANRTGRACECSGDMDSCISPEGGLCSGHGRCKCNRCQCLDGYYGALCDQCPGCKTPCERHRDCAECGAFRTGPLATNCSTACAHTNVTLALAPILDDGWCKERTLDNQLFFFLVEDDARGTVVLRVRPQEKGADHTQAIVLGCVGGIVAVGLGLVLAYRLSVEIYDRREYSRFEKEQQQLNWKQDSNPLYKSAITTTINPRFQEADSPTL

B1: FIB504 (rat anti-mouse/human beta7 monoclonal antibody), fluorescently labeled (antibody, V domains shown)
VH: EVQLQESGPGLVKPSQSLSLTCSVTGFFITNNYWGWIRKFPGNKMEWMGYISYSGSTSYNPSLKSRISITRDTSKNQFFLQLNSVTTEDTATYYCAMTGSSGYFDFWGPGTMVTVSS
VL: DVVMTQSPATLSVTPGERISLSCRASESVDTYLHWYQQKPNESPRLLIKYASQSISGIPSRFSGSGSGTDFTLSINGVELEDLSIYYCQQGNSLPNTFGAGTKLELKR
notes: Bought reagent (BD Biosciences), fluorescently labeled (PE label for colonic tissue)
Take B1: the binding result is “binds”.

The record behind these values is patent publication US20160209426A1 (Genentech, published 2016).
